Source: US20230303654A1 (CITY OF HOPE, published 2023)

B1: ab23 (scFv, V domains shown)
VH: EVQLVQSGAEVKKPGSSVKVSCRSSGGTFSTYGITWVRQAPGQGLEWMGRIIPSLGIPNYAQKFQGRVTITADTSVSTAWMELSSLESDDTAIYYCARENIDLATNDFWGQGTLVTVSS
VL: QSALTQPPSASGSPGQSVTISCTGTSRDIGAYGYVSWYQQVPGKAPKLIIYEVRNRPSGVSSRFSGSKSGNTASLTISGLQAEDEADYYCSSYTSSSTLDVVFGGGTKLTVL
B2: ab31 (scFv, V domains shown)
VH: EVQLVESGAEVKKPGESLKISCKGSGYTFTRYWIGWVRQMPGKGLEWMGIIYPGDLDTRYSPSFQGHVTISADKSISTAYLQWNSLKASDTAMYYCARLPQYCYKGVCKRWFDPWGQGTLVTVSS
VL: EIVLTQSPSSVSASVGDRVTITCRASQGIRSWLAWYQQKPGKAPKLLIYAASSLQSGVPSRFSGSGSGTDFTLTISSLQPEDFATYYCQQGHSVPYTFGQGTNLEIK
B3: ab45 (scFv, V domains shown)
VH: EVQLVESGAEVKKPGESLKISCKGSGYTFTRYWIGWVRQMPGKGLEWMGIIYPGDSDTRYSPSFQGHVTISADKSISTAYLQWNSLKASDTAMYYCARLPQYCSSGVCQRWFDPWGQGTLVTVSS
VL: EIVLTQSPSSVSASVGDRVTITCRASQGISSWLAWYQQKPGKAPKLLIYAASSLQSGVPSRFSGSGSGTDFTLTISSLQPEDFATYYCQQGNQFPYTFGQGTNLEIK
B4: ab33 (scFv, V domains shown)
VH: EVQLVESGAEVKKPGESLKISCKGSGYTFTRYWIGWVRQMPGKGLEWMGIIYPGDSDTRYSPSFQGHVTISADKSISTAYLQWNSLKASDTAMYYCARLPQYCRAGKCKRWFDPWGQGTLVTVSS
VL: EIVLTQSPSSVSASVGDRVTITCRASQGISSWLAWYQQKPGKAPKLLIYAASSLQSGVPSRFSGSGSGTDFTLTISSLQPEDFATYYCQQGNQYPYTFGQGTNLEIK
B5: ab35 (scFv, V domains shown)
VH: EVQLVESGAEVKKPGESLKISCKGSGYTFTRYWIGWVRQMPGKGLEWMGIIYPGDADTRYSPSFQGHVTISADKSISTAYLQWNSLKASDTAMYYCARLPQYCSRGVCQRWFDPWGQGTLVTVSS
VL: EIVLTQSPSSVSASVGDRVTITCRASQGISSWLAWYQQKPGKAPKLLIYAASSLQSGVPSRFSGSGSGTDFTLTISSLQPEDFATYYCQQGNQFPYTFGQGTNLEIK
B6: ab34 (scFv, V domains shown)
VH: EVQLVESGAEVKKPGESLKISCKGSGYTFTRYWIGWVRQMPGKGLEWMGIIYPGDADVRYSPSFQGHVTISADKSISTAYLQWNSLKASDTAMYYCARLPQYCRKGVCKRWFDPWGQGTLVTVSS
VL: EIVLTQSPSSVSASVGDRVTITCRASQGIRSWLAWYQQKPGKAPKLLIYAASSLQSGVPSRFSGSGSGTDFTLTISSLQPEDFATYYCQQGHSTPYTFGQGTNLEIK
B7: ab46 (scFv, V domains shown)
VH: EVQLVESGAEVKKPGESLKISCKGSGYTFTRYWIGWVRQMPGKGLEWMGIIYPGDSDTRYSPSFQGHVTISADKSISTAYLQWNSLKASDTAMYYCARLPQYCSSGVCHRWFDPWGQGTLVTVSS
VL: EIVLTQSPSSVSASVGDRVTITCRASQGISSWLAWYQQKPGKAPKLLIYAASSLQSGVPSRFSGSGSGTDFTLTISSLQPEDFATYYCQQGHSFPYTFGQGTNLEIK
B8: ab41 (scFv, V domains shown)
VH: EVQLVESGAEVKKPGESLKISCKGSGYTFTRYWIGWVRQMPGKGLEWMGIIYPGDNDVRYSPSFQGHVTISADKSISTAYLQWNSLKASDTAMYYCARLPQYCSAGVCFRWFDPWGQGTLVTVSS
VL: EIVLTQSPSSVSASVGDRVTITCRASQGISNWLAWYQQKPGKAPKLLIYAASSLQSGVPSRFSGSGSGTDFTLTISSLQPEDFATYYCQQGYSYPYTFGQGTNLEIK
B9: ab49 (scFv, V domains shown)
VH: EVQLVESGAEVKKPGESLKISCKGSGYTFTRYWIGWVRQMPGKGLEWMGIIYPGDSDTRYSPSFQGHVTISADKSISTAYLQWNSLKASDTAMYYCARLPQYCENGICKRWFDPWGQGTLVTVSS
VL: EIVLTQSPSSVSASVGDRVTITCRASQGIRSWLAWYQQKPGKAPKLLIYAASSLQSGVPSRFSGSGSGTDFTLTISSLQPEDFATYYCQQGDQYPLTFGQGTNLEIK
B10: ab43 (scFv, V domains shown)
VH: EVQLVESGAEVKKPGESLKISCKGSGYTFTRYWIGWVRQMPGKGLEWMGIIYPGDSDTRYSPSFQGHVTISADKSISTAYLQWNSLKASDTAMYYCARLPQYCSAGVCFRWFDPWGQGTLVTVSS
VL: EIVLTQSPSSVSASVGDRVTITCRASQGISSWLAWYQQKPGKAPKLLIYAASSLQSGVPSRFSGSGSGTDFTLTISSLQPEDFATYYCQQGHSFPYTFGQGTNLEIK
B11: ab44 (scFv, V domains shown)
VH: EVQLVESGAEVKKPGESLKISCKGSGYTFTRYWIGWVRQMPGKGLEWMGIIYPGDLDVRYSPSFQGHVTISADKSISTAYLQWNSLKASDTAMYYCARLPQYCREGKCHRWFDPWGQGTLVTVSS
VL: EIVLTQSPSSVSASVGDRVTITCRASQGIRNWLAWYQQKPGKAPKLLIYAASSLQSGVPSRFSGSGSGTDFTLTISSLQPEDFATYYCQQGDQDPLTFGQGTNLEIK
B12: ab42 (scFv, V domains shown)
VH: EVQLVESGAEVKKPGESLKISCKGSGYTFTRYWIGWVRQMPGKGLEWMGIIYPGDSDTRYSPSFQGHVTISADKSISTAYLQWNSLKASDTAMYYCARLPQYCQSGVCKRWFDPWGQGTLVTVSS
VL: EIVLTQSPSSVSASVGDRVTITCRASQGIRSWLAWYQQKPGKAPKLLIYAASSLQSGVPSRFSGSGSGTDFTLTISSLQPEDFATYYCQQGDQYPLTFGQGTNLEIK
B13: ab48 (scFv, V domains shown)
VH: EVQLVESGAEVKKPGESLKISCKGSGYTFTRYWIGWVRQMPGKGLEWMGIIYPGDNDVRYSPSFQGHVTISADKSISTAYLQWNSLKASDTAMYYCARLPQYCDKGICKRWFDPWGQGTLVTVSS
VL: EIVLTQSPSSVSASVGDRVTITCRASQGISSWLAWYQQKPGKAPKLLIYAASSLQSGVPSRFSGSGSGTDFTLTISSLQPEDFATYYCQQGDQLPYTFGQGTNLEIK
B14: ab40 (scFv, V domains shown)
VH: EVQLVESGAEVKKPGESLKISCKGSGYTFTRYWIGWVRQMPGKGLEWMGIIYPGDSETRYSPSFQGHVTISADKSISTAYLQWNSLKASDTAMYYCARLPQYCRSGVCQRWFDPWGQGTLVTVSS
VL: EIVLTQSPSSVSASVGDRVTITCRASQGISSWLAWYQQKPGKAPKLLIYAASSLQSGVPSRFSGSGSGTDFTLTISSLQPEDFATYYCQQGNQVPYTFGQGTNLEIK
B15: ab47 (scFv, V domains shown)
VH: EVQLVESGAEVKKPGESLKISCKGSGYTFTRYWIGWVRQMPGKGLEWMGIIYPGDSDTRYSPSFQGHVTISADKSISTAYLQWNSLKASDTAMYYCARLPQYCQNGVCHRWFDPWGQGTLVTVSS
VL: EIVLTQSPSSVSASVGDRVTITCRASQGIRNWLAWYQQKPGKAPKLLIYAASSLQSGVPSRFSGSGSGTDFTLTISSLQPEDFATYYCQQGDQDPLTFGQGTNLEIK
B16: ab32 (scFv, V domains shown)
VH: EVQLVESGAEVKKPGESLKISCKGSGYTFTRYWIGWVRQMPGKGLEWMGIIYPGDSETRYSPSFQGHVTISADKSISTAYLQWNSLKASDTAMYYCARLPQYCRRGVCKRWFDPWGQGTLVTVSS
VL: EIVLTQSPSSVSASVGDRVTITCRASQGISSWLAWYQQKPGKAPKLLIYAASSLQSGVPSRFSGSGSGTDFTLTISSLQPEDFATYYCQQGNQLPYTFGQGTNLEIK
B17: ab50 (scFv, V domains shown)
VH: EVQLVESGAEVKKPGESLKISCKGSGYTFTRYWIGWVRQMPGKGLEWMGIIYPGDADVRYSPSFQGHVTISADKSISTAYLQWNSLKASDTAMYYCARLPQYCSSGSCFRWFDPWGQGTLVTVSS
VL: EIVLTQSPSSVSASVGDRVTITCRASQGISSWLAWYQQKPGKAPKLLIYAASSLQSGVPSRFSGSGSGTDFTLTISSLQPEDFATYYCQQGYSTPYTFGQGTNLEIK
B18: ab19 (scFv, V domains shown)
VH: EVQLVESGAEVKKPGESLKISCKGSGYSFTSYWIGWVRQMPGKGLEWMGIIYPGDSDTRYSPSFQGQVTISADKSISTAYLQWSSLKASDTAMYYCARRGDLDAFDIWGQGTMVTVSS
VL: QPGLTQPPAASGTPGQRVTVSCSGASANIGSNAVSWFKQFPETAPRLLISGNTHRPSGVPDRVSGSKSGTSASLTISGLQSDDEADYYCAAWDDSLNGYVFGSGTKVTVL
B19: ab14 (scFv, V domains shown)
VH: QVQLQQSGPGLVKPSQTLSLTCAISGDSVSSNSAAWNWIRQSPARGLEWLGRTYYRSRWYNDYAISMKSRITINPDTSKNQFSLQLESVTPEDTAVYYCAREIRGFDYWGQGTLVTVSS
VL: QSVLTQPPSASGSPGQSVTISCTGTSSDVGAYNFVSWYQHHPGKAPKLIIYDFNKRPSGVPDRFSGSKSGNTASLTVSGLQADDEADYYCSSYAGSNNFDVVFGGGTKLTVL
B20: Anti-spike RBD Ab36 scFv (scFv)
scFv: ELVMTQSPSSVSASVGDRVTITCRASQAIGSWLAWYQQKPGKAPKLLISSASSLQSGVPSRFSGSGSGTDFTLTISSLQPEDFATYYCQQLDSYPVTFGPGTKVDIKGGSSRSSEVQLLESGGGLIQPGGSLRLSCAASGLTVSSNYMSWVRQAPGKGLEWVSVIYSGGSTYYADSVKGRFTISRDNSKNTLYLQMNSLRAEDTAVYYCARAIDSGAFDIWGQGTMVTVSSGSASAPTL
B21: Anti-spike RBD Ab38 scFv (scFv)
scFv: ELQMTQSPSSLSASVGDRVTITCRASQSISSYLNWYQQKPGKAPKLLIYAASSLQSGVPSRFSGSGSGTDFTLTISSLQPEDFATYYCQQANSFPLTFGGGTKVEIKGGSSRSSQVQLVQSGAEVKKPGSSVKVSCKASGGTLSENGFSWVRQAPGQGLEWMGRIVPMFDISNYAERFQDRVTITADGSTNTAYMELRSLRLEDTAVYYCARDAVATSPGVYQHYGMDVWGQGTTVTVSSASTKGPSV

The binders below were run against purified 6× His-tagged SARS-CoV-2 spike protein (ELISA coat, Example 12) (SARS-CoV-2, UniProt P0DTC2 14-1213).
Work on B1 yielded an EC50 of 116 nM. For B2, the EC50 was 40.4 nM. In the case of B3, the EC50 is reported as 37.3 nM. B4 gave an EC50 of 33.4 nM. Work on B5 yielded an EC50 of 39 nM. B6 gave an EC50 of 22.7 nM. With B7 the EC50 was 106 nM. Work on B8 yielded an EC50 of 34.1 nM. For B9, the EC50 was 234 nM. Binder B10 has an EC50 of 216 nM. In the case of B11, the EC50 is reported as 28.2 nM. Binder B12 has an EC50 of 721 nM. Work on B13 yielded an EC50 of 1560 nM. B14 was tested, and the EC50 was 40 nM. For B15, the EC50 was 81.7 nM. For B16, the EC50 was 13.1 nM. B17 gave an EC50 of 165 nM. Work on B18 yielded an EC50 of 24.2 nM. For B19, the EC50 was 154 nM.

Target: purified 6× His-tagged SARS-CoV-2 spike protein (ELISA coat, Example 12) (SARS-CoV-2, UniProt P0DTC2 14-1213)
Remark: another data set of the same source
With B20 the EC50 was 31.2 nM. With B21 the EC50 was 10.6 nM.
